Experiments:
[1] = Reactivity comparison of L-pipecolic acid 5-hydroxylases, substrate L-proline (Example 4); details: for Relative activity, Substrate: L-proline (hydroxy-L-proline-producing activity, 100 = hydroxy-L-pipecolic acid-producing activity): 10 mmol/L substrate, 30° C., 30 minutes; for hydroxy-L-proline detected from the reaction solution: Example 4, 10 mmol/L L-proline, in words
Experimental: (§1) The detection of the products was based on the absorbance at a wavelength of 340 nm.
(§2) The activity values were evaluated by the amount of a product per gram of total protein (U/g-protein).

[2] = Catalytic efficiency (kcat/Km) of L-pipecolic acid hydroxylases with L-proline (Example 3); format: biochemical; details: for hydroxy-L-proline detected from the reaction solution: L-proline as substrate, Example 3, in words
Experimental: Each of the obtained recombinant E. coli strains in a volume of 0.6 mL was recovered by centrifugation and was suspended in 0.5 mL of 50 mmol/L MES (2-morpholinoethanesulfonic acid) buffer at pH 6. The container containing the suspension was placed in ice-water bath to perform sonication and then spun at 12,000 rpm. The obtained supernatant was used as an enzyme solution in Example 3.
Subsequently, 0.05 mL of 1 mol/L hydrochloric acid was added to stop the reaction.
The reaction using L-proline as a substrate was carried out under the same conditions as in the above reaction using L-pipecolic acid.
Then, each reaction solution was treated using 1-fluoro-2,4-dinitrophenyl-5-L-alaninamide (FDAA) (manufactured by Tokyo Chemical Industry Co., Ltd.) according to a method as described below, to obtain a FDAA-derivative of a hydroxy-L-pipecolic acid or hydroxy-L-proline included in each reaction solution.
To the reaction solution after stopping the reaction, 0.05 mL of 1 mol/L sodium hydroxide was added for neutralization. After centrifuging the solution at 12,000 rpm, 15 μL of 0.5 mol/L borate buffer (pH 9) was added to 15 μL of the obtained supernatant, followed by further addition of 30 μL of 20 mmol/L FDAA solution in acetone and incubation at 40° C. for one hour. Subsequently, 10 μL of 1 mol/L hydrochloric acid was added to stop the derivatization reaction. The resulting solution was diluted by adding 80 μL of methanol, and then centrifuged at 12,000 rpm. The obtained supernatant was used as a FDAA derivative solution.
The amount of produced hydroxy-L-pipecolic acid or hydroxy-L-proline was analyzed with UPLC-MS (manufactured by Waters Co.).
An aliquot containing 5 μg of total protein was taken from each enzyme solution obtained in Example 2, loaded on each lane, and then electrophoresed on polyacrylamide gel. The obtained electrophoretogram was analyzed using the image analysis software Image Lab3.0 (manufactured by Bio-Rad Laboratories, Inc.) to determine the content of each hydroxylase. A carbonic anhydrase (manufactured by Sigma-Aldrich Co. LLC) was used as a quantification reference. The content of a hydroxylase of interest was calculated from the signal intensity of the enzyme of interest, based on the signal intensities of bands corresponding to 200 ng, 400 ng and 600 ng of the quantification reference provided for the electrophoresis.
The catalytic efficiency of each enzyme was calculated based on the Michaelis-Menten kinetic equation.
It is known that, in FIG. 1, the reciprocal of each intercept with the x-axis, multiplied with −1, represents a km value (mmol/L) and the reciprocal of each intercept with the y-axis represents a Vmax value (U/mg), the maximum rate of reaction.
The catalytic ability per molecule of the enzyme (kcat) can be calculated from the Vmax and the molecular weight of the enzyme. Table 5 indicates the result of the calculation of catalytic efficiency (kcat/km), which is an index representing the catalytic ability of an enzyme, based on the obtained kcat and km values.

[3] = Catalytic efficiency (kcat/Km) of L-pipecolic acid hydroxylases with L-pipecolic acid (Example 3); format: biochemical; details: in words
[4] = Reactivity comparison of L-pipecolic acid 5-hydroxylases, substrate L-pipecolic acid (Example 4); details: 10 mmol/L substrate, 30° C., 30 minutes; hydroxy-L-pipecolic acid-producing activity set to 100
Experimental: as §1, §2

[5] = Production of hydroxy-L-pipecolic acids by culture of recombinant E. coli expressing the hydroxylase (Example 5); format: cell-based, E. coli BL21 (DE3); details: for Accumulation of (4S)-hydroxy-L-proline: 120 hours; for Accumulation amount of (4S)-hydroxy-L-proline / Accumulation amount of (5S)-Hydroxy-L-pipecolic acid / Accumulation amount of L-pipecolic acid: after 120 hours, 20 mmol/L L-pipecolic acid in medium, 30° C.
[6] = 5-hydroxy-L-pipecolic acid-producing activity of McPH mutants (Example 6); format: biochemical; details: for Relative activity (5-hydroxy-L-pipecolic acid-producing activity, wild type = 100): Table 10, double and triple mutants
Source text: Each of the obtained plasmids was used to transform E. coli (Eschelichia coli) BL21 (DE3) (manufactured by Invitrogen) according to a conventional method and thus to obtain recombinant E. coli strains expressing the respective mutants.
Furthermore, the combination effect of the respective mutations was examined in the mutations corresponding to McPHm2, McPHm3, and McPHm9, each of which was effective to improve the activity. A plasmid expressing a double mutant (McPHm10) with substitutions of phenylalanine to tyrosine at position 5 and cysteine to alanine at position 23, and a plasmid expressing a triple mutant, which is derived from the double mutant and further has a substitution of aspartic acid to glutamic acid at position 282, were constructed. Then, recombinant E. coli strains were produced according to the method described above, and the resulting enzyme solutions were used to evaluate the 5-hydroxy-L-pipecolic acid-producing activity.

[7] = Hydroxylation activity of McPH mutants with L-proline as substrate (Example 6); format: biochemical; details: method of Example 4, in words

Molecule	Relative activity, Substrate: L-proline (hydroxy-L-proline-producing activity, 100 = hydroxy-L-pipecolic acid-producing activity) [1]	hydroxy-L-proline detected from the reaction solution [1]	hydroxy-L-proline detected from the reaction solution [2]	Activity, Substrate: L-pipecolic acid (cell spanning Km to kcat/Km) [3]	Relative activity, Substrate: L-pipecolic acid [4]	Accumulation of (4S)-hydroxy-L-proline ([5]; in words)	Accumulation amount of (4S)-hydroxy-L-proline [5]	Accumulation amount of (5S)-Hydroxy-L-pipecolic acid [5]	Accumulation amount of L-pipecolic acid [5]	Activity, Substrate: L-proline (cell spanning Km to kcat/Km) ([2]; in words)	Relative activity (5-hydroxy-L-pipecolic acid-producing activity, wild-type McPH = 100%) ([6]; Table 9, single mutants, U/g-protein basis, method of Example 4)	Relative activity (5-hydroxy-L-pipecolic acid-producing activity, wild type = 100) [6]	Conversion of the substrate to (5S)-hydroxy-L-pipecolic acid ([5]; incubation for 120 hours, in words)	Activity compared with that of the wild-type enzyme ([6]; in words)	Hydroxylation activity with L-proline as substrate [7]
CaPH: L-proline cis-4-hydroxylase from Catenulispora acidiphila NBRC102108, GenBank WP_012787640, SEQ ID NO: 6 (protein, listed as Catenulispora acidiphila) MRTQYVAALELDEGRLAKDLETSASFNYSEAYSNYLIGGPWKSAMLYSAGGDAGDGLLTDYDYRQSSDFTDYGRQMPYLQELISTSVDLSRLTFVRLARFAKSVIVPHRDFLELEEIPEDKRSAHRLHIPLATHEECFFSEDNVVYRMRAGELWYFDASRIHSVVSFAEEPRIHLIFDFADRPGAGSLVTVPGEPEGAGVPAASAVDRPQLSDAERAALARLADVLTMDTFSEIFSVLVKKHFRRDGGEHFVWDTLTALARACPDPAVLPHTQELRRYFTLERPSGSGQA	583%	much amount of hydroxy-L-proline was detected	much amount of hydroxy-L-proline was detected	(No activity )	100%	no accumulation of (4S)-hydroxy-L-proline is confirmed	0 mmol/L	0.8 mmol/L	18.8 mmol/L	–	–	–	–	–	–
McPH: amino acid hydroxylase from Micromonospora chokoriensis, GenBank WP_030487089, SEQ ID NO: 2 (protein, listed as Micromonospora chokoriensis) MRTHFVGEVALDLARLEADLATCRSLEWSEAYSDYVFGGSWKSCMLWAPGGDAGDGVVTDYAYDRSAGFTPHAERLPYLAELIRETADLDRLNFARLALVTNSVIIPHRDLLELSDLPDEARNEHRMHIPLATNDNCFFNEDNVVYRMRRGEVWFLDASRIHSVAVLTAQPRIHLMLDFVDTPGAGSFTRVAGGGVEAGIPVDRIVTRPPLGDDERADLFGVAPLLSMDTFDEVFSIVIKKHFRRDGGSDFVWDTMLELAAKSPDPAVLPHTEELRKHYTLDRSA	0%	No hydroxy-L-proline was detected	no hydroxy-L-proline was detected	–	100%	No accumulation of (4S)-hydroxy-L-proline was confirmed	0 mmol/L	23.5 mmol/L	1.8 mmol/L	(No activity )	100%	100	almost the entire amount of the substrate was allowed to convert to (5S)-hydroxy-L-pipecolic acid	–	–
McPHm11: McPH triple mutant F5Y, C23A, D282E; SEQ ID NO: 20 (protein, listed as Micromonospora chokoriensis) MRTHYVGEVALDLARLEADLATARSLEWSEAYSDYVFGGSWKSCMLWAPGGDAGDGVVTDYAYDRSAGFTPHAERLPYLAELIRETADLDRLNFARLALVTNSVIIPHRDLLELSDLPDEARNEHRMHIPLATNDNCFFNEDNVVYRMRRGEVWFLDASRIHSVAVLTAQPRIHLMLDFVDTPGAGSFTRVAGGGVEAGIPVDRIVTRPPLGDDERADLFGVAPLLSMDTFDEVFSIVIKKHFRRDGGSDFVWDTMLELAAKSPDPAVLPHTEELRKHYTLERSA	–	–	–	–	–	–	–	–	–	–	–	314	–	three or more times higher	virtually no activity against proline

From patent US12173330B2, “Method for producing hydroxy-L-pipecolic acid” (API CORPORATION, priority 2015, dated 2024)
